B1: Cytoplasmic polyadenylation element-binding protein 2, residues 513 to 575; numbered along this chain, Q7Z5Q1 (parent)
chain: KRVEVKPYVLDDQMCDECQGARCGGKFAPFFCANVTCLQYYCEFCWANIHSRAGREFHKPLVK

Variants of: B1
Experiment: abundance fitness (aPCA) (normalised: wild type 0, dead -1); higher = more abundant; growth selection in yeast, the domain comes from the species named
Details: Homo sapiens

Abundance fitness of substitutions, site by site:
C45: K -1.11, H -0.733, L -1.14, W -1.04, E -1.16, Q -0.994, V -1.32, T -1.01, M -1.24, F -1.2, A -0.77, R -1.05, Y -0.917, I -1.1, P -0.932, S -1.1
V35: Y -0.305
R55: L 0.04, D -0.08, Q -0.058, G -0.176, P -0.463, F 0.035, N -0.019, I 0.104, H -0.131, A -0.03, E -0.142, M 0.031, C -0.194
T36: E 0.108, A 0.007, V -0.106, C -0.201, W -0.328, L -0.121, N -0.024, H -0.061, R -0.151, F -0.312, P -0.054, Q -0.058, M -0.095, Y -0.153, I -0.09, K -0.027, D 0.108, G 0.073, S -0.011
E43: C -0.25, G -0.179, V -0.235, T -0.149, M -0.309, N -0.05, R -0.107, H -0.079, L -0.395, S 0.018, I -0.539, A -0.3, D -0.049, F -0.298, Q -0.11, K -0.161, W -0.136, Y -0.146
F44: P 0.082, T 0.003, V 0.044, W -0.067, Y 0.059, L 0.007, E 0.033, R -0.038, M -0.145, D -0.109, K -0.046, C 0.053, N -0.056, S -0.012, G 0.015, A 0.05, Q 0.124
N48: C -0.033, M 0.068, D 0.007, F -0.071, T 0.024, Q -0.028, V -0.003, R 0.029, I -0.02, S 0.032, E 0.104, Y -0.112, G 0.074, L 0.014, A -0.001, P -0.141, H 0.049, K 0.164
H50: W -0.784, N -0.827, T -0.742, G -0.637, I -0.992, R -0.775, E -0.546, S -0.723, P -0.81, K -0.673, M -0.875, A -0.674, Y -0.806, F -0.904, L -0.965, Q -0.727
W46: V -0.573, I -0.444, R -0.571, G -0.567, T -0.558, K -0.829, F 0.027, M -0.336, C -0.401, P -0.624, D -0.684, Q -0.624, N -0.33, Y -0.154, E -0.658, A -0.503, H -0.328, L -0.335
A53: K 0.142, F -0.045, E 0.082, D 0.02, I -0.079, C -0.091, V -0.006, L -0.092, T 0.082, S 0.053, Y -0.098, M -0.045, N 0.152, R 0.055, H 0.053, P 0.157, Q 0.106, W -0.287
L38: I -0.115, T -0.072, N 0.219, Y 0.174, E 0.077, A 0.044, M 0.123, P -0.706, R 0.056, G -0.006, S 0.009, C 0.064, V -0.094, K 0.202, D -0.054, H 0.029, F -0.076, W 0.022
Q39: E -0.13, G 0.024, C -0.046, T -0.002, Y -0.369, H 0.089, I -0.573, L -0.175, A 0.1, V -0.001, M 0.078, R 0.129, K 0.201, D -0.631, P -0.799, F -0.472, N -0.103, S 0.016
Y41: L 0.039, D -0.729, V -0.531, G -0.878, P -0.734, A -0.676, R -0.804, K -0.625, S -0.532, C -0.365, E -0.652, N -0.898, I -0.694, M -0.053, F -0.088, Q -0.433, T -0.329, H -0.704
R52: N 0.004, C -0.077, W -0.225, D 0.156, S 0.085, L -0.017, F -0.071, Q 0.119, K 0.118, M 0.064, E 0.079, Y -0.088, I 0.029, G 0.02, V 0.102, A 0
A47: C -0.318, D 0.102, K 0.091, Y -0.114, H -0.17, L -0.18, W -0.133, P -0.175, E -0.001, I -0.073, R -0.041, M 0.019, F -0.235, Q -0.01, V -0.192, N 0.127
G54: E -0.065, V -0.32, H -0.123, K -0.195, I -0.176, M -0.299, P -0.004, S -0.009, L -0.146, W -0.259, N 0.108, T -0.112
I49: L -0.033, D -0.186, M -0.184, F -0.044, N -0.221, G -0.284, E -0.461, K -0.127, P -0.43, W -0.268, V -0.01, Q -0.132, T -0.139, R -0.006, S -0.015, Y 0.026, A 0.017, C -0.443
S51: K 0.106, L -0.021, V -0.025, D 0.174, F -0.239, N 0.091, Q 0.102, A 0.045, P -0.118, T 0.006, G 0.051, W -0.267, M 0.029, H -0.054, R 0.116
C42: L -1.03, H -0.818, A -0.593, P -0.826, E -0.951, F -0.819, Y -0.869, W -1.29, V -0.849, Q -1.21, G -0.58, T -1.11, D -0.558, M -1.22, R -1
Y40: C -0.411, V -0.399, E -0.702, G -0.474, S -0.178, A -0.149, W -0.059, T -0.315, N 0.041, K -0.186, H -0.092, Q -0.184, M -0.231, R -0.132, I -0.512, P -0.654, L -0.397, F -0.087
C37: W -0.952, R -0.55, F -0.85, G -0.633, A -0.82, P -0.496, Q -1.02, L -0.931, Y -0.806, H -0.352, T -1, I -0.568, E -0.76, D -0.766, V -0.88, S -0.54
